Data reported in US20250382352A1 (SCG CELL THERAPY PTE, published 2025).

What was measured:
[1] = molecular target: T1, HBsAg recombinant protein (hepatitis B virus); test: ELISA, recombinant protein
T1 chain: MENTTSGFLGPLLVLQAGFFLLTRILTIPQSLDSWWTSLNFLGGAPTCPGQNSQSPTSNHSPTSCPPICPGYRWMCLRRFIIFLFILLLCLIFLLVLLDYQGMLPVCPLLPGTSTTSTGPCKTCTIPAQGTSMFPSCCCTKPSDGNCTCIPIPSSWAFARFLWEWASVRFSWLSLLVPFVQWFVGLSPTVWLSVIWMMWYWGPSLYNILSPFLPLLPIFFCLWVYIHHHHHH
Procedure: (§1) Anti-HBsAg/anti-CD3 bispecific antibodies generated in Example 1 are analyzed by standard ELISA techniques for their binding properties to HBsAg, human CD3E, and rhesus CD3ε recombinant protein, respectively.

[2] = molecular target: T2, rhesus CD3ε recombinant protein (rhesus); test: ELISA, recombinant protein
T2 construct: also called rhesus CD38 [sic]
Procedure: as §1

Row | Binder | EC50 [1] [pM] | EC50 [2] [pM]
1 | BsAb2-5-001 (bispecific antibody, also called VH1VL1) heavy: not shown light: QTVVTQEPSLTVSPGGTVTLTCRSSTGAVTTSNYANWVQQKPGQAPRALIGGTNKRAPWTPARFSGSLLGDKAALTLSGVQPEDEAEYYCALWYSNLWVFGGGTKLTVLRTVAAPSVFIFPPSDEQLKSGTASVVCLLNNFYPREAKVQWKVDNALQSGNSQESVTEQDSKDSTYSLSSTLTLSKADYEKHKVYACEVTHQGLSSPVTKSFNRGEC | 230 | 720
2 | BsAb2-5-004 (bispecific antibody, also called VH1VL4) heavy: not shown light: QTVVTQEPSFSVSPGGTVTLTCRSSTGAVTTSNYANWYQQTPGQAPRTLIGGTNKRAPGVPDRFSGSILGDKAALTITGAQADDESDYYCALWYSNLWVFGGGTKLTVLRTVAAPSVFIFPPSDEQLKSGTASVVCLLNNFYPREAKVQWKVDNALQSGNSQESVTEQDSKDSTYSLSSTLTLSKADYEKHKVYACEVTHQGLSSPVTKSFNRGEC | 360 | –
3 | BsAb2-5-005 (bispecific antibody, also called VH1VL5) heavy: not shown light: QTVVTQEPSFSVSPGGTVTLTCRSSTGAVTTSNYANWVQQTPGQAPRGLIGGTNKRAPGVPDRFSGSILGDKAALTITGAQADDESDYYCALWYSNLWVFGGGTKLTVLRTVAAPSVFIFPPSDEQLKSGTASVVCLLNNFYPREAKVQWKVDNALQSGNSQESVTEQDSKDSTYSLSSTLTLSKADYEKHKVYACEVTHQGLSSPVTKSFNRGEC | 150 | 310
4 | BsAb2-5-014 (bispecific antibody, also called VH3VL4) heavy: not shown light: QTVVTQEPSFSVSPGGTVTLTCRSSTGAVTTSNYANWYQQTPGQAPRTLIGGTNKRAPGVPDRFSGSILGDKAALTITGAQADDESDYYCALWYSNLWVFGGGTKLTVLRTVAAPSVFIFPPSDEQLKSGTASVVCLLNNFYPREAKVQWKVDNALQSGNSQESVTEQDSKDSTYSLSSTLTLSKADYEKHKVYACEVTHQGLSSPVTKSFNRGEC | 200 | –
5 | BsAb2-5-025 (bispecific antibody, also called VH5VL5) heavy: not shown light: QTVVTQEPSFSVSPGGTVTLTCRSSTGAVTTSNYANWVQQTPGQAPRGLIGGTNKRAPGVPDRFSGSILGDKAALTITGAQADDESDYYCALWYSNLWVFGGGTKLTVLRTVAAPSVFIFPPSDEQLKSGTASVVCLLNNFYPREAKVQWKVDNALQSGNSQESVTEQDSKDSTYSLSSTLTLSKADYEKHKVYACEVTHQGLSSPVTKSFNRGEC | 200 | 250
6 | BsAb2-5-030 (bispecific antibody, also called VH6VL5) heavy: not shown light: QTVVTQEPSFSVSPGGTVTLTCRSSTGAVTTSNYANWVQQTPGQAPRGLIGGTNKRAPGVPDRFSGSILGDKAALTITGAQADDESDYYCALWYSNLWVFGGGTKLTVLRTVAAPSVFIFPPSDEQLKSGTASVVCLLNNFYPREAKVQWKVDNALQSGNSQESVTEQDSKDSTYSLSSTLTLSKADYEKHKVYACEVTHQGLSSPVTKSFNRGEC | 150 | 230
7 | BsAb2-6-002 (bispecific antibody, also called VH1VL2) heavy: not shown light: QTVVTQEPSLTVSPGGTVTLTCRSSTGAVTTSNYANWVQQKPGQAPRGLIGGTNKRAPGTPARFSGSLLGDKAALTLSGVQPEDEAEYYCALWYSNLWVFGGGTKLTVLRTVAAPSVFIFPPSDEQLKSGTASVVCLLNNFYPREAKVQWKVDNALQSGNSQESVTEQDSKDSTYSLSSTLTLSKADYEKHKVYACEVTHQGLSSPVTKSFNRGEC | 460 | 140
8 | BsAb2-6-003 (bispecific antibody, also called VH1VL3) heavy: not shown light: QAVVTQEPSLTVSPGGTVTLTCRSSTGAVTTSNYANWVQQKPGQAPRGLIGGTNKRAPGTPARFSGSLLGDKAALTLSGVQPEDEAEYFCALWYSNLWVFGGGTKLTVLRTVAAPSVFIFPPSDEQLKSGTASVVCLLNNFYPREAKVQWKVDNALQSGNSQESVTEQDSKDSTYSLSSTLTLSKADYEKHKVYACEVTHQGLSSPVTKSFNRGEC | 470 | 170
9 | BsAb2-6-007 (bispecific antibody, also called VH2VL2) heavy: not shown light: QTVVTQEPSLTVSPGGTVTLTCRSSTGAVTTSNYANWVQQKPGQAPRGLIGGTNKRAPGTPARFSGSLLGDKAALTLSGVQPEDEAEYYCALWYSNLWVFGGGTKLTVLRTVAAPSVFIFPPSDEQLKSGTASVVCLLNNFYPREAKVQWKVDNALQSGNSQESVTEQDSKDSTYSLSSTLTLSKADYEKHKVYACEVTHQGLSSPVTKSFNRGEC | 420 | 190
10 | BsAb2-6-008 (bispecific antibody, also called VH2VL3) heavy: not shown light: QAVVTQEPSLTVSPGGTVTLTCRSSTGAVTTSNYANWVQQKPGQAPRGLIGGTNKRAPGTPARFSGSLLGDKAALTLSGVQPEDEAEYFCALWYSNLWVFGGGTKLTVLRTVAAPSVFIFPPSDEQLKSGTASVVCLLNNFYPREAKVQWKVDNALQSGNSQESVTEQDSKDSTYSLSSTLTLSKADYEKHKVYACEVTHQGLSSPVTKSFNRGEC | 570 | 280
11 | BsAb2-6-004 (bispecific antibody, also called VH1VL4) heavy: not shown light: QTVVTQEPSFSVSPGGTVTLTCRSSTGAVTTSNYANWYQQTPGQAPRTLIGGTNKRAPGVPDRFSGSILGDKAALTITGAQADDESDYYCALWYSNLWVFGGGTKLTVLRTVAAPSVFIFPPSDEQLKSGTASVVCLLNNFYPREAKVQWKVDNALQSGNSQESVTEQDSKDSTYSLSSTLTLSKADYEKHKVYACEVTHQGLSSPVTKSFNRGEC | 430 | –
12 | BsAb2-6-009 (bispecific antibody, also called VH2VL4) heavy: not shown light: QTVVTQEPSFSVSPGGTVTLTCRSSTGAVTTSNYANWYQQTPGQAPRTLIGGTNKRAPGVPDRFSGSILGDKAALTITGAQADDESDYYCALWYSNLWVFGGGTKLTVLRTVAAPSVFIFPPSDEQLKSGTASVVCLLNNFYPREAKVQWKVDNALQSGNSQESVTEQDSKDSTYSLSSTLTLSKADYEKHKVYACEVTHQGLSSPVTKSFNRGEC | 450 | –
13 | BsAb2-6-014 (bispecific antibody, also called VH3VL4) heavy: not shown light: QTVVTQEPSFSVSPGGTVTLTCRSSTGAVTTSNYANWYQQTPGQAPRTLIGGTNKRAPGVPDRFSGSILGDKAALTITGAQADDESDYYCALWYSNLWVFGGGTKLTVLRTVAAPSVFIFPPSDEQLKSGTASVVCLLNNFYPREAKVQWKVDNALQSGNSQESVTEQDSKDSTYSLSSTLTLSKADYEKHKVYACEVTHQGLSSPVTKSFNRGEC | 310 | –
14 | BsAb2-6-019 (bispecific antibody, also called VH4VL4 (printed VH4VLA)) heavy: not shown light: QTVVTQEPSFSVSPGGTVTLTCRSSTGAVTTSNYANWYQQTPGQAPRTLIGGTNKRAPGVPDRFSGSILGDKAALTITGAQADDESDYYCALWYSNLWVFGGGTKLTVLRTVAAPSVFIFPPSDEQLKSGTASVVCLLNNFYPREAKVQWKVDNALQSGNSQESVTEQDSKDSTYSLSSTLTLSKADYEKHKVYACEVTHQGLSSPVTKSFNRGEC | 530 | –
15 | BsAb2-6-024 (bispecific antibody, also called VH5VL4) heavy: not shown light: QTVVTQEPSFSVSPGGTVTLTCRSSTGAVTTSNYANWYQQTPGQAPRTLIGGTNKRAPGVPDRFSGSILGDKAALTITGAQADDESDYYCALWYSNLWVFGGGTKLTVLRTVAAPSVFIFPPSDEQLKSGTASVVCLLNNFYPREAKVQWKVDNALQSGNSQESVTEQDSKDSTYSLSSTLTLSKADYEKHKVYACEVTHQGLSSPVTKSFNRGEC | 510 | –
16 | BsAb2-6-029 (bispecific antibody, also called VH6VL4 (printed VH6VLA)) heavy: not shown light: QTVVTQEPSFSVSPGGTVTLTCRSSTGAVTTSNYANWYQQTPGQAPRTLIGGTNKRAPGVPDRFSGSILGDKAALTITGAQADDESDYYCALWYSNLWVFGGGTKLTVLRTVAAPSVFIFPPSDEQLKSGTASVVCLLNNFYPREAKVQWKVDNALQSGNSQESVTEQDSKDSTYSLSSTLTLSKADYEKHKVYACEVTHQGLSSPVTKSFNRGEC | 480 | –
